Test results: patent publication US20140378382A1 (WISCONSIN ALUMNI RESEARCH FOUNDATION, published 2014)
Read-outs that look alike come from different tables or passages of the source. One block for each binder: values may come before it. Non-standard residues stand in square brackets, D forms with d. Primed or numbered codes have the meaning given here. No end group written: not given here. APC = aminopyrrolidine carboxylic acid (2-aminopyrrolidine-4-carboxylic acid); ACPC(3) = 2-aminocyclopentane carboxylic acid (cyclic beta residue); ACPC″ = 2-aminocyclopentane carboxylic acid (X); ACPC = 2-aminocyclopentane carboxylic acid; hArg = N=C(N)NCCCC[C@H](N)C(=O)O; β3hE = N[C@@H](CCC(=O)O)CC(=O)O; β3hD = NC(CC(=O)O)CC(=O)O; Aib = CC(C)(N)C(=O)O

Assays:
Test in all cases: cell-based or functional assay
[1] = target: T1, rat parathyroid hormone receptor 1, wild-type (rPTHR-1) (rat, UniProt P25961 27-591)
T1 sequence (looked up): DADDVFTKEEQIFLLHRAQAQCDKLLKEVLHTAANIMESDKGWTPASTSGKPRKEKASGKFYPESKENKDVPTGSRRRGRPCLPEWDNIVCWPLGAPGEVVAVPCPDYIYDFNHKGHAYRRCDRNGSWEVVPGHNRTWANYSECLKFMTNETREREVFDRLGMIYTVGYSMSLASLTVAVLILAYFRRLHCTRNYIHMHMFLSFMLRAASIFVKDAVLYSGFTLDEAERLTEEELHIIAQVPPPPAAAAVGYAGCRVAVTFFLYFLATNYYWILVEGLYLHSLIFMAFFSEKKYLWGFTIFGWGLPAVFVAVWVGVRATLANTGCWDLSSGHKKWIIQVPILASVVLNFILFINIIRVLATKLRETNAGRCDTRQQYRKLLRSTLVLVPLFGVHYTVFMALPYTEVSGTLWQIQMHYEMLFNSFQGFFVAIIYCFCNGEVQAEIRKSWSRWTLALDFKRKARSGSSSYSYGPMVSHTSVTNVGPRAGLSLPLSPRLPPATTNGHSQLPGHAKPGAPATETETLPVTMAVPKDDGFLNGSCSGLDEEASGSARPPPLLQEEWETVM

[2] = target: T1, rat parathyroid hormone receptor 1, …; remark: listed apart in the source
[3] = target: T1, rat parathyroid hormone receptor 1, …; design: AUC-on / AUC-washout: unit not given beside the values
[4] = target: T2, human parathyroid hormone receptor 1, wild-type (hPTHR-1) (human, UniProt Q03431 27-593)
T2 sequence (looked up): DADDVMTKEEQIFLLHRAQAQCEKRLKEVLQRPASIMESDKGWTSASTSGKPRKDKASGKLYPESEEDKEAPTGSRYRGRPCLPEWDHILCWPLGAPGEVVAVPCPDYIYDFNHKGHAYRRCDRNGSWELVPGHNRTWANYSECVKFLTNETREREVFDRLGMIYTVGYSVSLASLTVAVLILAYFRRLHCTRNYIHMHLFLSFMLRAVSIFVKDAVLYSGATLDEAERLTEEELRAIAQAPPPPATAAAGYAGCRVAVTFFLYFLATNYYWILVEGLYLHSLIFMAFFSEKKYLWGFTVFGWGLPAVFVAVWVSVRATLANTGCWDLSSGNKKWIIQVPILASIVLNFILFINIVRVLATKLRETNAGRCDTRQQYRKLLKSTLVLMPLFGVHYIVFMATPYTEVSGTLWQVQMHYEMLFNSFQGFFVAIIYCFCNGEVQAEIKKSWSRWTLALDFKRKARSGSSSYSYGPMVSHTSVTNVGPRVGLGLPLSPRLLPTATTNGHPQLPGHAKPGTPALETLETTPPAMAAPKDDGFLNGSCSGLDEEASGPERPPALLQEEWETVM

delNT PTHR1 = target: T3, delNT PTHR1 (human, UniProt Q03431 27-593)
T3 sequence (looked up): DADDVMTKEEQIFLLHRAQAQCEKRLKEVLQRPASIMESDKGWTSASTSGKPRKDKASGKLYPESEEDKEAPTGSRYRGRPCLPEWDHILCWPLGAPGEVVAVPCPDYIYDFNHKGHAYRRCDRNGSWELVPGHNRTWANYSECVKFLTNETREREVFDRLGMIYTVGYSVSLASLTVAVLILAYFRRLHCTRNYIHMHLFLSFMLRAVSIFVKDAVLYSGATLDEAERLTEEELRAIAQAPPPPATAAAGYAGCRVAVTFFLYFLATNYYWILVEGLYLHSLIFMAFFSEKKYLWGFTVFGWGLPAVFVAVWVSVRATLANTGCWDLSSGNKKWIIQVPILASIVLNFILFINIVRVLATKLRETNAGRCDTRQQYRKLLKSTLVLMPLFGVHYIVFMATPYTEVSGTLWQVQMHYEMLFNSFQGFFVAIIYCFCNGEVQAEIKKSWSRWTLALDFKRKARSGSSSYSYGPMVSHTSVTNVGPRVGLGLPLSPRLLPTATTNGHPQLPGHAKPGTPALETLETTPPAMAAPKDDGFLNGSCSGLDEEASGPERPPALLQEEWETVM

[5] = target: T2, human parathyroid hormone receptor 1, …; remark: listed apart in the source
[6] = target: T4, PTHR-1 (species and cells not stated for the assay) (Homo sapiens (Human), UniProt Q03431 27-593)
T4 sequence: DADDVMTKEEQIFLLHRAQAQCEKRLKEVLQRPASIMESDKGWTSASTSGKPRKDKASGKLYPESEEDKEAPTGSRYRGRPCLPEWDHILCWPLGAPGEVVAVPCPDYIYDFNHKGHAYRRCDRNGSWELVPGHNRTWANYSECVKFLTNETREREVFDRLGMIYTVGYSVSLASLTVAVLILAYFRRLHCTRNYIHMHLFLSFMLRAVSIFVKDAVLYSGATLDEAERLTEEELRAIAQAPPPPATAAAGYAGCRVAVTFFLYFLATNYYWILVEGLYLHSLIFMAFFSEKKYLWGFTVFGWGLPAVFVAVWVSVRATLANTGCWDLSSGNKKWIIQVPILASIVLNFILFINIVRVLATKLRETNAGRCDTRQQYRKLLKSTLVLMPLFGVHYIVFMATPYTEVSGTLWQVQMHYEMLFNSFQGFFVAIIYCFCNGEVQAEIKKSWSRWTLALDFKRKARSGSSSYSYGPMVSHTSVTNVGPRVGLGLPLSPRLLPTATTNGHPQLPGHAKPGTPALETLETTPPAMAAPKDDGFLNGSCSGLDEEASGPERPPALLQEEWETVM

[7] = target: T4, PTHR-1 (species and cells not stated …); remark: listed apart in the source
[8] = target: T2, human parathyroid hormone receptor 1, …; remark: listed apart in the source
[9] = target: T2, human parathyroid hormone receptor 1, …; remark: listed apart in the source

cAMP Max [1]: 1 relative to PTH(1-34) | cAMP Max [2]: 65 cps × 10-3 | AUC-on [3]: 92000 | AUC-washout [3]: 100000
B1: PTH(1-34) (peptide)
peptide: SVSEIQLMHNLGKHLNSMERVEWLRKKLQDVHNF-NH2

Fold PTH [6]: 9.5 fold | cAMP EC50 [6]: 0.78 nM
B4: M-X1,5,7-FcycD6 (peptide)
peptide: [ACPC″]V[Aib]E[ACPC″]Q[ACPC″]MHQ[hArg]AK[ACPC″]LNS[ACPC″]RRV[APC]WLR[APC]KLQ[ACPC″]VHN[ACPC″]-NH2

EC50(+)inhibitor/EC50(-)inhibitor [7]: 1.6 ratio | EC50 of PTH(1-34) signaling with 1 µM inhibitor [7]: 0.25 nM
B5: hPTH(7-34) (peptide)
peptide: LMHNLGKHLNSMERVEWLRKKLQDVHNF-NH2

Fold PTH [6]: 3.8 fold | cAMP EC50 [6]: 0.31 nM
B9: M-X1,5,7-CycD6 (peptide)
peptide: H[ACPC(3)]V[Aib]E[ACPC(3)]Q[ACPC(3)]MHQ[hArg]AK[ACPC(3)]LNS[ACPC(3)]RRV[β3hE]WLR[APC]KLQ[β3hD]VHN[ACPC(3)]-NH2
modifications: not fully specified

More lines, now with the values behind:

B2: ACPC(8) PTH(1-34) (peptide)
peptide: SVSEIQL[ACPC]HNLGKHLNSMERVEWLRKKLQDVHNF-NH2
Fold PTH [4]: 107 fold | cAMP EC50 [4]: 9.74 nM | Fold PTH (delNT PTHR1): 480 fold | cAMP EC50 (delNT PTHR1): 29000 nM

B3: D6 BA058 ACPC(1,7) (peptide)
peptide: [ACPC]VSEHQ[ACPC]LHDKGKSIQDLRRRELLEKLL[Aib]KLHT[ACPC]-NH2
modifications: not fully specified; also: D6 β3 residues, positions not shown (marking lost)
cAMP EC50 [5]: 141 nM

B6: CycD6 BA058 ACPC(1,5,7) (peptide)
peptide: [ACPC]VSE[ACPC]Q[ACPC]LHDKGK[ACPC]IQD[ACPC]RRR[APC]LLE[APC]LL[Aib][ACPC]LHT[ACPC]-NH2
cAMP EC50 [5]: 0.65 nM

B7: A3 (peptide)
peptide: SVSEIQLMHNLGKHLNSMERVEWLRKKLQDVHNF
modifications: C-terminal amide; three β3 residues with native side chains, αααβ pattern; bold marks lost in text (inferred 23, 27, 31)
cAMP EC50 [8]: 0.29 nM | cAMP Max [2]: 74 cps × 10-3 | cAMP EC50 [9]: 0.29 nM

B8: CycD6 BA058 (peptide)
peptide: AVSEHQLLHDKGK[ACPC]IQD[ACPC]RRR[APC]LLE[APC]LL[Aib][ACPC]LHT[ACPC]-NH2
cAMP EC50 [5]: 0.18 nM

B10: CycD6 BA058 ACPC(1,7) (peptide)
peptide: [ACPC]VSEHQ[ACPC]LHDKGK[ACPC]IQD[ACPC]RRR[APC]LLE[APC]LL[Aib][ACPC]LHT[ACPC]-NH2
cAMP EC50 [5]: 18.9 nM

B11: ACPC(2) PTH(1-34) (peptide)
peptide: S[ACPC]SEIQLMHNLGKHLNSMERVEWLRKKLQDVHNF-NH2
Fold PTH [4]: 3 fold | cAMP EC50 [4]: 0.27 nM | Fold PTH (delNT PTHR1): 170 fold | cAMP EC50 (delNT PTHR1): 11000 nM
